Results from the supplement of paper PMC7877785.
± gives the uncertainty stated by the source.

Assay: self-splicing fitness, log relative to wild type (ln ratio); higher = more splicing; Tetrahymena group I intron in knt gene, E. coli kanamycin selection, DiMSum; sequences stand for … in CUCUCU…GGAGGGAAAAGUUAUCAGGCAUGCACCUGGUAGCUAGUCUUUAAACCAAUAGAUUGCAUCGGUUUAAAAGGCAAGACCGUCAAAUUGCGGGAAAGGGGUCAACAGCCGUUCAGUACCAAGUCUCAGGGGAAACUUUGAGAUGGCCUUGCAAAGGGUAUGGUAAUAAGCUGACGGACAUGGUCCUAACCACGCAGCCAAGUCCUAAGUCAACAGAUCUUCUGUUGAUAUGGAUGCAGUUCACAGACUAAAUGUCGGUCGGGGAAGAUGUAUUCUUCUCAUAAGAUAUAGUCGGACCUCUCCUUAAUGGGAGCUAGCGGAUGAAGUGAUGCAACACUGGAGCCGCUGGGAACUAAUUUGUAUGCGAAAGUAUAUUGAUUAGUUUUGGAGUACUCGUGGUCG
Method in brief: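 A randomised library covering all eight P1ex-region intron nucleotides was built with the intron in the knt kanamycin-resistance gene on pET-22b(+) and held in E. coli BL21(DE3). Cells were grown overnight at 37°C or 30°C on LB agar, with or without 25 μg/mL kanamycin, plus 100 μg/mL carbenicillin, 50 μM IPTG and 0.2% rhamnose, and pooled colonies were amplicon-sequenced on an Illumina HiSeq 2500. DiMSum fitness is the error-weighted combination of wild-type-normalised replicate fold changes, kanamycin versus none.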

| Sequence | self-splicing fitness (ln) (30 °C) | self-splicing fitness (ln) (37 °C) |
| --- | --- | --- |
| CCGCAGCAAUAUUACGGGCG | -2.13 ± 0.11 | -1.95 ± 0.12 |
| CCGCAGCAAUAUUACGGGUC | -3.86 ± 0.18 | -2.69 ± 0.19 |
| CCGCAGCAAUAUUACGGUGC | -2.98 ± 0.18 | -2.63 ± 0.22 |
| CCGCAGCAAUAUUACGUAAU | -3.78 ± 0.15 | -2.3 ± 0.19 |
| CCGCAGCAAUAUUACGUACA | -2.89 ± 0.16 | -2.4 ± 0.23 |
| CCGCAGCAAUAUUACGUAUA | -3.6 ± 0.16 | -3.03 ± 0.19 |
| CCGCAGCAAUAUUACGUCAG | -0.624 ± 0.054 | 0.0667 ± 0.065 |
| CCGCAGCAAUAUUACGUCGG | -3.9 ± 0.21 | -2.28 ± 0.2 |
| CCGCAGCAAUAUUACGUGCG | -4.67 ± 0.22 | -2.86 ± 0.15 |
| CCGCAGCAAUAUUACGUGUA | -3.25 ± 0.17 | -1.38 ± 0.13 |
| CCGCAGCAAUAUUACGUUCA | -3.89 ± 0.27 | -2 ± 0.16 |
| CCGCAGCAAUAUUACGUUGC | -3.32 ± 0.14 | -2.7 ± 0.21 |
| CCGGAGCAAUAUUACGAUUC | – | -2.85 ± 0.38 |
| CCGGAGCAAUAUUACGCCUU | -2.67 ± 0.36 | -3.35 ± 0.47 |
| CCGGAGCAAUAUUACGCUAC | -2.55 ± 0.49 | – |
| CCGGAGCAAUAUUACGCUUA | -2.45 ± 0.24 | -3.19 ± 0.35 |
| CCGGAGCAAUAUUACGGAGG | – | -2.35 ± 0.25 |
| CCGGAGCAAUAUUACGGGAU | -3.11 ± 0.36 | -2.44 ± 0.25 |
| CCGGAGCAAUAUUACGUAUA | -3.21 ± 0.23 | -2.49 ± 0.36 |
| CCGGAGCAAUAUUACGUAUG | -1.41 ± 0.071 | -0.561 ± 0.083 |
| CCGGAGCAAUAUUACGUCAC | -3.61 ± 0.34 | -2.71 ± 0.38 |
| CCGGAGCAAUAUUACGUCCU | -4.9 ± 0.31 | -2.29 ± 0.16 |
| CCGGAGCAAUAUUACGUCUG | -1.22 ± 0.14 | -0.402 ± 0.16 |
| CCGGAGCAAUAUUACGUUUA | – | -1.99 ± 0.25 |
| CCGUAGCAAUAUUACGAGAG | -3.86 ± 0.29 | -2.54 ± 0.24 |

| Sequence | self-splicing fitness (ln) (30 °C) | self-splicing fitness (ln) (37 °C) |
| --- | --- | --- |
| CCGUAGCAAUAUUACGAUAU | -2 ± 0.19 | -3.31 ± 0.43 |
| CCGUAGCAAUAUUACGCCAG | -1.17 ± 0.16 | -0.533 ± 0.22 |
| CCGUAGCAAUAUUACGCCUA | -3.02 ± 0.34 | -2.11 ± 0.27 |
| CCGUAGCAAUAUUACGCUCU | -2.65 ± 0.37 | -2.48 ± 0.39 |
| CCGUAGCAAUAUUACGCUGU | -3.79 ± 0.25 | -3.17 ± 0.26 |
| CCGUAGCAAUAUUACGGAAA | -3.22 ± 0.42 | -2.52 ± 0.46 |
| CCGUAGCAAUAUUACGGACA | -1.88 ± 0.35 | – |
| CCGUAGCAAUAUUACGGCAU | -3.15 ± 0.23 | -2.85 ± 0.25 |
| CCGUAGCAAUAUUACGGCCU | -1.36 ± 0.14 | -2.7 ± 0.41 |
| CCGUAGCAAUAUUACGGCGC | -3.01 ± 0.33 | -1.48 ± 0.32 |
| CCGUAGCAAUAUUACGGGGA | -3.45 ± 0.25 | -3.11 ± 0.25 |
| CCGUAGCAAUAUUACGGUCG | -0.844 ± 0.074 | -0.447 ± 0.095 |
| CCGUAGCAAUAUUACGGUGA | -3.66 ± 0.26 | -2.45 ± 0.25 |
| CCGUAGCAAUAUUACGGUGG | -2.59 ± 0.16 | -1.1 ± 0.17 |
| CCGUAGCAAUAUUACGUAAG | 0.191 ± 0.047 | 0.106 ± 0.062 |
| CCGUAGCAAUAUUACGUAGG | -3.19 ± 0.17 | -1.87 ± 0.19 |
| CCGUAGCAAUAUUACGUCAU | -3.33 ± 0.24 | -2.32 ± 0.28 |
| CCGUAGCAAUAUUACGUCGA | -1.93 ± 0.14 | -1.57 ± 0.13 |
| CCGUAGCAAUAUUACGUCUG | -0.102 ± 0.054 | 0.303 ± 0.067 |
| CCGUAGCAAUAUUACGUGAG | -3.11 ± 0.34 | -2.51 ± 0.38 |
| CCGUAGCAAUAUUACGUGCG | -2.39 ± 0.11 | -1.68 ± 0.12 |
| CCGUAGCAAUAUUACGUGUC | -3.6 ± 0.29 | -1.87 ± 0.32 |
| CCGUAGCAAUAUUACGUUAA | -3.18 ± 0.4 | -2.67 ± 0.31 |
| CCGUAGCAAUAUUACGUUCG | -0.619 ± 0.066 | 0.0526 ± 0.095 |
| CCGUAGCAAUAUUACGUUGG | -4.39 ± 0.27 | -3.1 ± 0.19 |

| Sequence | self-splicing fitness (ln) (30 °C) | self-splicing fitness (ln) (37 °C) |
| --- | --- | --- |
| CCGUAGCAAUAUUACGUUUU | -4.21 ± 0.23 | -2.87 ± 0.22 |
| CCUAAGCAAUAUUACGAAGG | -3.55 ± 0.16 | -2.9 ± 0.2 |
| CCUAAGCAAUAUUACGAAUC | -0.765 ± 0.2 | – |
| CCUAAGCAAUAUUACGACGC | – | -1.59 ± 0.42 |
| CCUAAGCAAUAUUACGACGG | -3.49 ± 0.19 | -2.24 ± 0.24 |
| CCUAAGCAAUAUUACGACUA | -2.87 ± 0.4 | -1.59 ± 0.33 |
| CCUAAGCAAUAUUACGAGAA | -2.67 ± 0.36 | – |
| CCUAAGCAAUAUUACGAGAU | -3.2 ± 0.27 | -3.33 ± 0.31 |
| CCUAAGCAAUAUUACGAGGC | -3.32 ± 0.15 | -3.61 ± 0.22 |
| CCUAAGCAAUAUUACGAUAG | -1.12 ± 0.065 | -0.285 ± 0.074 |
| CCUAAGCAAUAUUACGCAAC | -3.08 ± 0.26 | -3.03 ± 0.4 |
| CCUAAGCAAUAUUACGCGCA | -3.25 ± 0.24 | -2.2 ± 0.19 |
| CCUAAGCAAUAUUACGCGGU | -2.54 ± 0.13 | -3.06 ± 0.18 |
| CCUAAGCAAUAUUACGCUAU | -4.71 ± 0.39 | -2.35 ± 0.24 |
| CCUAAGCAAUAUUACGGAGA | – | -1.46 ± 0.22 |
| CCUAAGCAAUAUUACGGAGG | -4.42 ± 0.29 | -2.71 ± 0.31 |
| CCUAAGCAAUAUUACGGCAA | -3.72 ± 0.21 | -2.91 ± 0.23 |
| CCUAAGCAAUAUUACGGCCU | -1.9 ± 0.16 | -1.84 ± 0.37 |
| CCUAAGCAAUAUUACGGGCC | -3.18 ± 0.27 | -2.12 ± 0.22 |
| CCUAAGCAAUAUUACGGGGG | -3.51 ± 0.2 | -2.5 ± 0.24 |
| CCUAAGCAAUAUUACGGGUC | -4.66 ± 0.36 | -3.25 ± 0.22 |
| CCUAAGCAAUAUUACGUCUA | -3.9 ± 0.24 | -3.48 ± 0.36 |
| CCUAAGCAAUAUUACGUCUU | -3.47 ± 0.18 | -2.42 ± 0.22 |
| CCUAAGCAAUAUUACGUGUA | -3.61 ± 0.15 | -1.89 ± 0.14 |
| CCUAAGCAAUAUUACGUUUA | -3.45 ± 0.18 | -3.14 ± 0.2 |

| Sequence | self-splicing fitness (ln) (30 °C) | self-splicing fitness (ln) (37 °C) |
| --- | --- | --- |
| CCUCAGCAAUAUUACGAAAG | -1.51 ± 0.069 | -0.45 ± 0.087 |
| CCUCAGCAAUAUUACGACCA | -2.93 ± 0.34 | -1.99 ± 0.46 |
| CCUCAGCAAUAUUACGACCU | -2.59 ± 0.16 | -2.59 ± 0.29 |
| CCUCAGCAAUAUUACGAUCA | -3.65 ± 0.22 | -2.96 ± 0.26 |
| CCUCAGCAAUAUUACGCAAA | – | -2.46 ± 0.3 |
| CCUCAGCAAUAUUACGCAUC | -2.68 ± 0.18 | -2.85 ± 0.41 |
| CCUCAGCAAUAUUACGCAUG | -1.83 ± 0.092 | -0.467 ± 0.086 |
| CCUCAGCAAUAUUACGCGCU | -2 ± 0.13 | -2.79 ± 0.25 |
| CCUCAGCAAUAUUACGCGGC | -3.25 ± 0.2 | -2.5 ± 0.2 |
| CCUCAGCAAUAUUACGCGUG | -1.85 ± 0.081 | -0.545 ± 0.072 |
| CCUCAGCAAUAUUACGGAAA | -3.7 ± 0.23 | -1.63 ± 0.17 |
| CCUCAGCAAUAUUACGGACG | -0.587 ± 0.064 | 0.272 ± 0.081 |
| CCUCAGCAAUAUUACGGACU | -3.93 ± 0.33 | -1.79 ± 0.24 |
| CCUCAGCAAUAUUACGGCAA | -3.12 ± 0.24 | -2.41 ± 0.23 |
| CCUCAGCAAUAUUACGGGAC | -3.63 ± 0.23 | -1.98 ± 0.26 |
| CCUCAGCAAUAUUACGGGCA | – | -2.2 ± 0.24 |
| CCUCAGCAAUAUUACGGGUU | -4.07 ± 0.21 | -2.02 ± 0.15 |
| CCUCAGCAAUAUUACGUAAA | -3.87 ± 0.24 | -3.05 ± 0.29 |
| CCUCAGCAAUAUUACGUAUC | -0.834 ± 0.13 | -3.05 ± 0.26 |
| CCUCAGCAAUAUUACGUUAA | -2.89 ± 0.17 | -2.96 ± 0.23 |
| CCUCAGCAAUAUUACGUUCC | -3.09 ± 0.15 | -2.42 ± 0.33 |
| CCUGAGCAAUAUUACGAAAU | -3.15 ± 0.29 | -0.975 ± 0.19 |
| CCUGAGCAAUAUUACGACGG | -3.06 ± 0.25 | -2.59 ± 0.48 |
